Data: publication PMC3540977 (Peptides, 2012)

System: bovine brain microvessel endothelial cells (BBMECs)
Assay: Metabolism of Dyn A 1–17 in the presence of BBMECs
Format: in vitro ADME
Conditions: incubation with bovine brain microvessel endothelial cells, LC-MS/MS

Dynorphin A 1–17 [Dyn A 1–17]
metabolite identified in the presence of BBMECs: Dyn A 1–6 is identified as a metabolite
